From patent US20240287144A1

Key:
Assay in all cases: cell-based or functional assay
Parameters in all cases: unit not given beside the values
[1] = biological target: HIV-1 Env of virus BG505.W6M.C2.T332N.SG3 (Clade A) (HIV-1 strain BG505)
[2] = biological target: HIV-1 Env of virus MW965.26.SG3 (Clade C) (HIV-1 strain MW965.26)
[3] = biological target: HIV-1 Env of virus 242-14.SG3 (Clade AG) (HIV-1 strain 242-14)
[4] = biological target: HIV-1 Env of virus HxB2.DG.SG3 (Clade B) (HIV-1 strain HxB2)
[5] = biological target: HIV-1 Env of virus 001428-2.42.SG3 (Clade C) (HIV-1 strain 001428-2.42)
[6] = biological target: HIV-1 Env of virus ZM106.9.SG3 (Clade C) (HIV-1 strain ZM106.9)
[7] = biological target: HIV-1 Env of virus DJ263.8.SG3 (Clade AG) (HIV-1 strain DJ263.8)
[8] = biological target: HIV-1 Env of virus 25925-2.22.SG3 (Clade C) (HIV-1 strain 25925-2.22)
[9] = biological target: HIV-1 Env of virus 3301.V1.C24.SG3 (Clade AC) (HIV-1 strain 3301.V1.C24)
[10] = biological target: HIV-1 Env of virus CNE58.SG3 (Clade C) (HIV-1 strain CNE58)

VRC01 (antibody) gave an ID50 (virus neutralization, ctrl mAb; run with wk 6 sera) [1] of 0.097, an ID50 (virus neutralization, ctrl mAb; run with wk 18 sera) [1] of 0.068 and an ID50 (virus neutralization, ctrl mAb; run with wk 6 sera) [2] of 0.025. For the same substance, the ID50 (virus neutralization, ctrl mAb; run with wk 18 sera) [2] was 0.041, the ID50 (virus neutralization, ctrl mAb; run with wk 6 sera) [3] was > 50 and the ID50 (virus neutralization, ctrl mAb; run with wk 18 sera) [3] was > 50. The ID50 (virus neutralization, ctrl mAb; run with wk 6 sera) [4] was 0.07, the ID50 (virus neutralization, ctrl mAb; run with wk 18 sera) [4] was < 0.05 and the ID50 (virus neutralization, ctrl mAb; run with wk 6 sera) [5] was < 0.05. For the same substance, the ID50 (virus neutralization, ctrl mAb; run with wk 18 sera) [5] was < 0.05, the ID50 (virus neutralization, ctrl mAb; run with wk 6 sera) [6] was 0.472 and the ID50 (virus neutralization, ctrl mAb; run with wk 18 sera) [6] was 0.486. It also gave an ID50 (virus neutralization, ctrl mAb; run with wk 6 sera) [7] of 0.095, an ID50 (virus neutralization, ctrl mAb; run with wk 18 sera) [7] of 0.127 and an ID50 (virus neutralization, ctrl mAb; run with wk 6 sera) [8] of 2.91. For the same substance, the ID50 (virus neutralization, ctrl mAb; run with wk 18 sera) [8] was 1.07, the ID50 (virus neutralization, ctrl mAb; run with wk 6 sera) [9] was 0.305 and the ID50 (virus neutralization, ctrl mAb; run with wk 18 sera) [9] was 0.358. For the same substance, the ID50 (virus neutralization, ctrl mAb; run with wk 6 sera) [10] was 0.398 and the ID50 (virus neutralization, ctrl mAb; run with wk 18 sera) [10] was 0.435.
